Experiment [1] addresses T1, human CD47 on cells (SHP-77 tumor cells, human red blood cells, CCRF-CEM cells, human CD47 CHO-K1 stable cell … (human, UniProt Q08722 19-323)).
T1 construct: whole, on cells; also called RBC
Description: flow cytometry on human RBCs. (A flow cytometer gives signals particle by particle.)

Experiment [2] addresses T1, human CD47 on cells (SHP-77 tumor …). Briefly: cell-based or functional assay.
Experiment [3] has the same target. Briefly: flow cytometry on SHP-77 cells.
In experiment [4] the target is T2, wild type human CD47 (Acro Biosystems, cat. no. CD7-H5227) (human, UniProt Q08722 19-139).
T2 construct: Bought protein used as SPR analyte; also called Human CD47 wt; wild-type CD47
Description: SPR, IgG captured, CD47 in flow; exp 4.

Experiment [5] deals with T3, Human CD47-C33G (human, UniProt Q08722 19-135).
T3 construct: also called CD47 mutein with C33G mutation
Briefly: SPR, IgG captured, CD47 in flow; exp 4. In general terms: SPR reads the build-up and loss of mass on a sensor chip optically.

The target of experiment [6] is T2, wild type human CD47 (Acro Biosystems, …). Description: SPR, IgG captured, CD47 in flow; exp 1.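 Also: biacore T200 SPR using IgG from supernatants of transfected HEK293 cells, rate constants fitted to association and dissociation curves, Kd derived from koff over kon.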
Experiment [7] concerns the target T3, Human CD47-C33G. Description: SPR, IgG captured, CD47 in flow; exp 1.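 Also: biacore T200 SPR using IgG from supernatants of transfected HEK293 cells, rate constants fitted to association and dissociation curves, Kd derived from koff over kon.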
In experiment [8] the target is T2, wild type human CD47 (Acro Biosystems, …). Description: SPR, IgG captured, CD47 in flow; exp 2.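 Also: IgG from HEK293 cell supernatants tested by SPR on a BIAcore T200, C33G mutein prevents IgV homodimers for monovalent affinity, KD derived from association and dissociation rates.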
Experiment [9] deals with T3, Human CD47-C33G. Description: SPR, IgG captured, CD47 in flow; exp 2.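 Also: IgG from HEK293 cell supernatants tested by SPR on a BIAcore T200, C33G mutein prevents IgV homodimers for monovalent affinity, KD derived from association and dissociation rates.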
In experiment [10] the target is T2, wild type human CD47 (Acro Biosystems, …). Briefly: SPR, IgG captured, CD47 in flow; exp 3.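 Also: biacore T200 SPR with antibodies taken from supernatants of transfected HEK293 cells, C33G mutein avoiding IgV homodimers for monovalent affinity, Kd derived from association and dissociation rate constants.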
The target in experiment [11] is T3, Human CD47-C33G. Description: SPR, IgG captured, CD47 in flow; exp 3.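 Also: biacore T200 SPR with antibodies taken from supernatants of transfected HEK293 cells, C33G mutein avoiding IgV homodimers for monovalent affinity, Kd derived from association and dissociation rate constants.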
Experiment [12] deals with T2, wild type human CD47 (Acro Biosystems, …). Description: SPR, IgG captured, CD47 in flow; exp 4. This is another data set of the same source.
Experiment [13] deals with T3, Human CD47-C33G. Description: SPR, IgG captured, CD47 in flow; exp 4. This is another data set of the same source.

B1: 108VH10.Mo / 108VL10.Me (antibody, V domains shown)
VH: EVQLVESGGGLVQPGGSLRLSCAASGFTFSHHWIHWVRQAPGKGLEWVAMIDASDSETRLSDSFKGRFTISADTSKNTAYLQMNSLRAEDTAVYYCSRLGRYYFDYWGQGTLVTVSS
VL: DIQMTQSPSSLSASVGDRVTITCRASQSISSYLNWYQQKPGKAPKLLIYGASSRYSGVPSRFSGSRSGTDFTLTISSLQPEDFATYYCGESYGHLYTFGQGTKVEIK
notes: 4D5-framework series; also called VH10.Mo VL10.Me
With B1, in experiment [1], the response was half-maximal at 3.4 nM (EC50) and the “Fitted Maximal MFI” value is 19200 MFI. Besides, in experiment [2], the “CCRF-CEM phagocytosis EC50” value was 0.18 nM and the “CCRF-CEM phagocytosis, Phagocytosis (%)” value amounted to 56.4%. Moreover, in experiment [3], it took 7.9 nM to reach a half-maximal effect (EC50) and the “Fitted Maximal MFI” value stood at 34500 MFI. Also, in experiment [4], the Kd stood at 5.8 nM, the koff is 0.0032 s⁻¹ and the kon stood at 560000 M⁻¹ s⁻¹. In [5], this molecule returned a Kd of 45 nM, a koff of 0.0093 s⁻¹ and a kon of 210000 M⁻¹ s⁻¹.

B2: 108VH10.Mp / 108VL10.Me (antibody, V domains shown)
VH: EVQLVESGGGLVQPGGSLRLSCAASGFTFSHHWIHWVRQAPGKGLEWVAMIDASDSETRLVDSFKGRFTISADTSKNTAYLQMNSLRAEDTAVYYCSRLGRYYFDYWGQGTLVTVSS
VL: DIQMTQSPSSLSASVGDRVTITCRASQSISSYLNWYQQKPGKAPKLLIYGASSRYSGVPSRFSGSRSGTDFTLTISSLQPEDFATYYCGESYGHLYTFGQGTKVEIK
notes: 4D5-framework series; constant regions not restated for this series; also called VH10.Mp VL10.Me
Take B2: in experiment [1], the EC50 was found to be 23.6 nM and the “Fitted Maximal MFI” value came to 16100 MFI. Besides, in experiment [2], the “CCRF-CEM phagocytosis EC50” value came out at 1.2 nM and the “CCRF-CEM phagocytosis, Phagocytosis (%)” value turned out to be 47.1%. Also, in experiment [3], it took 27.5 nM to reach a half-maximal effect (EC50) and the “Fitted Maximal MFI” value was 24100 MFI. Further, in experiment [4], the affinity, expressed as Kd, was 15 nM; the koff came out at 0.0039 s⁻¹; the kon turned out to be 250000 M⁻¹ s⁻¹. In [5], this molecule showed a Kd of 170 nM, a koff of 0.012 s⁻¹ and a kon of 72000 M⁻¹ s⁻¹.

B3: 108VH5 / 108VL1.M5 (antibody, human IgG4 S228P, kappa, V domains shown)
VH: EVQLVQSGAEVKKPGASVKVSCKASGYSFTHHWIHWVRQAPGQGLEWMGMIDPSDSETRLSQKFKDRVTMTRDTSTSTVYMELSSLRSEDTAVYYCARLGRYYFDYWGQGTLVTVSS
VL: EIVLTQSPATLSLSPGERATLSCRASQSVSSYLAWYQQKPGQAPRLLIYGASNRATGIPARFSGSGSGTDFTLTISSLEPEDFAVYYCGESYGHLYTFGGGTKVEIKR
notes: Full-length IgG4 (S228P), kappa; also called VH5 VL1.M5
On to B3, for which the dissociation constant (Kd) in experiment [6] was 0.83 nM; in experiment [7], 3.4 nM; in experiment [8], 0.82 nM; in [9], 3.9 nM. In addition, the koff in experiment [6] stood at 0.00065 s⁻¹; in experiment [7], 0.0012 s⁻¹; in [8], 0.00059 s⁻¹; in experiment [9], 0.0012 s⁻¹. Also, the kon in experiment [6] amounted to 780000 M⁻¹ s⁻¹; in [7], 340000 M⁻¹ s⁻¹; in experiment [8], 720000 M⁻¹ s⁻¹; in experiment [9], 310000 M⁻¹ s⁻¹.

B4: 108VH5.M12 / 108VL1.M5 (antibody, human IgG4 S228P, kappa, V domains shown)
VH: EVQLVQSGAEVKKPGASVKVSCKASGYTFTHHWMHWVRQAPGQGLEWMGMIDASDSETRYAQKFQGRVTMTRDTSTSTVYMELSSLRSEDTAVYYCARLGRYYFDYWGQGTLVTVSS
VL: EIVLTQSPATLSLSPGERATLSCRASQSVSSYLAWYQQKPGQAPRLLIYGASNRATGIPARFSGSGSGTDFTLTISSLEPEDFAVYYCGESYGHLYTFGGGTKVEIKR
notes: Full-length IgG4 (S228P), kappa; also called VH5.M12 VL1.M5
In experiment [8], B4 yielded a Kd of 2.7 nM, a koff of 0.002 s⁻¹ and a kon of 730000 M⁻¹ s⁻¹. In addition, in experiment [9], the affinity, expressed as Kd, was 15 nM; the koff came to 0.0041 s⁻¹; the kon is 280000 M⁻¹ s⁻¹.

B5: 108VH5.M18 / 108VL1.M5 (antibody, human IgG4 S228P, kappa, V domains shown)
VH: EVQLVQSGAEVKKPGASVKVSCKASGYTFTHHWMHWVRQAPGQGLEWMGMIDASESETRYAQKFQGRVTMTRDTSTSTVYMELSSLRSEDTAVYYCARLGRYYFDYWGQGTLVTVSS
VL: EIVLTQSPATLSLSPGERATLSCRASQSVSSYLAWYQQKPGQAPRLLIYGASNRATGIPARFSGSGSGTDFTLTISSLEPEDFAVYYCGESYGHLYTFGGGTKVEIKR
notes: Full-length IgG4 (S228P), kappa; also called VH5.M18 VL1.M5
Take B5: in experiment [10], the Kd was 12 nM, the koff is 0.002 s⁻¹ and the kon came out at 170000 M⁻¹ s⁻¹. In experiment [11], this molecule showed a Kd of 1200 nM, a koff of 0.087 s⁻¹ and a kon of 75000 M⁻¹ s⁻¹.

B6: 108VH5.M21 / 108VL1.M5 (antibody, human IgG4 S228P, kappa, V domains shown)
VH: EVQLVQSGAEVKKPGASVKVSCKASGYTFTHHWMHWVRQAPGQGLEWMGMIDASDFETRYAQKFQGRVTMTRDTSTSTVYMELSSLRSEDTAVYYCARLGRYYFDYWGQGTLVTVSS
VL: EIVLTQSPATLSLSPGERATLSCRASQSVSSYLAWYQQKPGQAPRLLIYGASNRATGIPARFSGSGSGTDFTLTISSLEPEDFAVYYCGESYGHLYTFGGGTKVEIKR
notes: Full-length IgG4 (S228P), kappa; also called VH5.M21 VL1.M5
For B6, in experiment [1], it took 9.2 nM to reach a half-maximal effect (EC50) and the “Fitted Maximal MFI” value worked out at 40800 MFI. Moreover, in [2], the “CCRF-CEM phagocytosis EC50” value turned out to be 0.32 nM and the “CCRF-CEM phagocytosis, Phagocytosis (%)” value is 51.9%. In experiment [12], this molecule had a Kd of 6.5 nM, a koff of 0.0032 s⁻¹ and a kon of 490000 M⁻¹ s⁻¹. In [13], this molecule yielded a Kd of 51 nM, a koff of 0.008 s⁻¹ and a kon of 160000 M⁻¹ s⁻¹. Further, in [3], the EC50 was 11.9 nM and the “Fitted Maximal MFI” value is 37400 MFI.

B7: 108VH5.M17 / 108VL1.M5 (antibody, human IgG4 S228P, kappa, V domains shown)
VH: EVQLVQSGAEVKKPGASVKVSCKASGYTFTHHWMHWVRQAPGQGLEWMGMIDASEGETRYAQKFQGRVTMTRDTSTSTVYMELSSLRSEDTAVYYCARLGRYYFDYWGQGTLVTVSS
VL: EIVLTQSPATLSLSPGERATLSCRASQSVSSYLAWYQQKPGQAPRLLIYGASNRATGIPARFSGSGSGTDFTLTISSLEPEDFAVYYCGESYGHLYTFGGGTKVEIKR
notes: Full-length IgG4 (S228P), kappa; also called VH5.M17 VL1.M5
On to B7, for which, in experiment [10], the Kd came to 18 nM, the koff was 0.0084 s⁻¹ and the kon came out at 460000 M⁻¹ s⁻¹. In [11], this molecule came in with a Kd of 1300 nM, a koff of 0.084 s⁻¹ and an association rate constant (kon) of 64000 M⁻¹ s⁻¹.

B8: 108VH5.M10 / 108VL1.M5 (antibody, human IgG4 S228P, kappa, V domains shown)
VH: EVQLVQSGAEVKKPGASVKVSCKASGYTFTHHWIHWVRQAPGQGLEWMGMIDASDSETRYAQKFQGRVTMTRDTSTSTVYMELSSLRSEDTAVYYCARLGRYYFDYWGQGTLVTVSS
VL: EIVLTQSPATLSLSPGERATLSCRASQSVSSYLAWYQQKPGQAPRLLIYGASNRATGIPARFSGSGSGTDFTLTISSLEPEDFAVYYCGESYGHLYTFGGGTKVEIKR
notes: Full-length IgG4 (S228P), kappa; also called VH5.M10 VL1.M5
B8: in [8], the Kd was determined as 2.8 nM, the koff turned out to be 0.0019 s⁻¹ and the kon amounted to 660000 M⁻¹ s⁻¹. In experiment [9], this molecule displayed a Kd of 16 nM, a koff of 0.004 s⁻¹ and a kon of 250000 M⁻¹ s⁻¹.

B9: 108VH5.M14 / 108VL1.M5 (antibody, human IgG4 S228P, kappa, V domains shown)
VH: EVQLVQSGAEVKKPGASVKVSCKASGYTFTHHWIHWVRQAPGQGLEWMGMIDASDGETRYAQKFQGRVTMTRDTSTSTVYMELSSLRSEDTAVYYCARLGRYYFDYWGQGTLVTVSS
VL: EIVLTQSPATLSLSPGERATLSCRASQSVSSYLAWYQQKPGQAPRLLIYGASNRATGIPARFSGSGSGTDFTLTISSLEPEDFAVYYCGESYGHLYTFGGGTKVEIKR
notes: Full-length IgG4 (S228P), kappa; also called VH5.M14 VL1.M5
In experiment [8], B9 displayed a Kd of 2.6 nM, a koff of 0.0018 s⁻¹ and a kon of 690000 M⁻¹ s⁻¹. In [9], this molecule came in with a Kd of 14 nM, a koff of 0.0037 s⁻¹ and a kon of 260000 M⁻¹ s⁻¹.

One may read the EC50 as the midpoint of the concentration-response curve. Low values mean greater potency, high ones weaker potency. What is called Kd is the concentration at which binding is half-saturated. A high value points to lower affinity. Usually koff stands for the first-order rate constant of dissociation. A higher koff goes with a short-lived complex. The term kon denotes the rate constant with which the complex forms. Lower therefore signals slow association.

Source of the values: patent US20260132197A1 (NANJING LEGEND BIOTECH, published 2026).
